Measured values taken from the nanobody polyreactivity screen of Harvey et al. (2022).

Test: yeast display, Sf9 membrane polyspecificity reagent, FACS + sequencing; frameworks hold sequencing errors
Procedure, shortened: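 In a synthetic yeast display library (Saccharomyces cerevisiae BJ5465), nanobody expression was induced with galactose for 36–48 hours. FACS gates were set low and high (top ~1%) using anti-HA fluorescence for expression and streptavidin fluorescence for binding of the Sf9 membrane reagent. Each polyreactivity label is drawn from the gate of origin.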
For “QVQLVESGGGLVQAGGSLRLSCAASGIIFHWYAMGWYRQAPGKERELVAAITQSGGSTSYADSVKGRFTISRDNAKNTVYLQMNSLKPEDTAVYYCAKDYAYTLWENYYAFNYWGQGTQVTVSS”, the “polyreactivity (PSR sort gate)” value was “low polyreactivity”. For “QVQLVESGGGLVQAGGSLRLSCAASGIIFIAYAMGWYRQAPGKERELVADISIGGSTNYADSVKGRFTISRDNAKNTVYLQMNSLKPEDTAVYYCNAGGGFYGSTVEHDYWGQGTQVTVSS”, the “polyreactivity (PSR sort gate)” value was “low polyreactivity”. For “QVQLVESGGGLVQAGGSLRLSCAASGIIFIFYDMGWYRQAPGTERELVAAITNGVDSTYYADSVKGRFTISRDNAKNTVYLQMNSLKPEDTAVYYCNADTVVEWYSPSREYDYWGQGTQVTVSS”, the “polyreactivity (PSR sort gate)” value was “low polyreactivity”. For “QVQLVESGGGLVQAGGSLRLSCAASGIIFITYAMGWYRQAPGKERELVAAITSDGNTNYADSVKGRFTISRDNAKNTVYLQMNSLKPEDTAVYYCNAETQYGVLSWHSTRHDYWGQGTQVTVSS”, the “polyreactivity (PSR sort gate)” value was “low polyreactivity”. With “QVQLVESGGGLVQAGGSLRLSCAASGIIFITYAMGWYRQAPGKERELVAVISKGGGRTYYADSVKGRFTISRDNAKNTVYLQMNSLKPEDTAVYYCAARSSSNRYVHMDYWGQGTQVTVSS” the “polyreactivity (PSR sort gate)” value was “high polyreactivity”. With “QVQLVESGGGLVQAGGSLRLSCAASGIIFKDYAMGWYRQAPGKERELVAAISWNGDRTYYADSVKGRFTISRDNAKNTVYLQMNRLKPEDTAVYYCAARFGSCFNYWGQGTQVTVSS” the “polyreactivity (PSR sort gate)” value was “high polyreactivity”. For “QVQLVESGGGLVQAGGSLRLSCAASGIIFKGYPMGWYRPAPGKERELVAGISSGGTTYYADSVKGRFTISRDNAKITVYLQMNSLKPEDTAVYYCGAGPRRSYRFDYWGQGTQVTVSS”, the “polyreactivity (PSR sort gate)” value was “high polyreactivity”. With “QVQLVESGGGLVQAGGSLRLSCAASGIIFKNYAMGWYRQAPGKERELVAAISKRGASTYYADSVKGRFTISRDNAKNTVYLQMNSLKPEDTAVYYCAAYRQGSAYDYWGQGTQVTVSS” the “polyreactivity (PSR sort gate)” value was “high polyreactivity”. For “QVQLVESGGGLVQAGGSLRLSCAASGIIFKNYAMGWYRQAPGKERELVAAISWRGGRTYYADSVKGRFTISRDNAKNTVYLQMNSLKPEDTAVYYCAKELYVSYRGGPWVDYWGQGTQVTVSS”, the “polyreactivity (PSR sort gate)” value was “high polyreactivity”. For “QVQLVESGGGLVQAGGSLRLSCAASGIIFKSYAVGWYRQAPGKERELVAAISSGGSTNYADSVKGRFTISRDNAKNTVYLQMNSLKPEDTAVYYCAKRYTATEWHGERDYWGQGTQVTVSS”, the “polyreactivity (PSR sort gate)” value was “high polyreactivity”. For “QVQLVESGGGLVQAGGSLRLSCAASGIIFKTYAKGWYRPAPAKERELVAAISRRGGSTYYADSVNGRFTISRDNAKNTVYLQMNSLKPEDTAVYYCAAEYGYVIAYTTRAFYYWGHGTQVTVSS”, the “polyreactivity (PSR sort gate)” value was “high polyreactivity”. For “QVQLVESGGGLVQAGGSLRLSCAASGIIFKYYAMGWYRQAPGKERELVAAITGNGGSTYYADSVKGRFTISRDNAKNTVYLQMNSLKPEDTAVYYCATRWFAVHMYWGQGTQVTVSS”, the “polyreactivity (PSR sort gate)” value was “high polyreactivity”. In the case of “QVQLVESGGGLVQAGGSLRLSCAASGIIFLDNAMGWYRQAPGKERELVADITSSGGSTYYADSVKGRFTISRDNAKNTVSLQMNSLKPEDTAVYYCAATRPSYNDAESDYWGQGTQVTVSS”, the “polyreactivity (PSR sort gate)” value is reported as “low polyreactivity”. For “QVQLVESGGGLVQAGGSLRLSCAASGIIFLDYVMGWYRQAPGKERELVAAISRSGGTTYYADSVKGRFTISRDNAKNTVYLQMNSLKPEDTAVYYCAVRSYRDTRFYYWGQGTQVTVSS”, the “polyreactivity (PSR sort gate)” value was “high polyreactivity”. For “QVQLVESGGGLVQAGGSLRLSCAASGIIFLFYAMGWYSQAPGKERELVGSITWSGGSTYYADSVKGRFTISRDTAKNTVYLQMNRLKPEDTAVYYCAASVKIISYLGQSEFLGGELDYWGQGTQVTVSS”, the “polyreactivity (PSR sort gate)” value was “low polyreactivity”. For “QVQLVESGGGLVQAGGSLRLSCAASGIIFLVYAMGWSRQAPGKEGQLVAGISGSATSTNYADSVKGRFTISRDNAKNTVYLEMNSLKPEDTAVYYCAASYYGYYVPDNSKYGYWGQGTQVTVSS”, the “polyreactivity (PSR sort gate)” value was “low polyreactivity”. For “QVQLVESGGGLVQAGGSLRLSCAASGIIFLVYAMGWYRQAPGKERELVAGISGSATSTNYADSVKGRFTISRDNAKNTVYLQMNSLKPEETAVYYCAASYYGYYVPDNSKYGYWGQGTQVTVSS”, the “polyreactivity (PSR sort gate)” value was “low polyreactivity”. For “QVQLVESGGGLVQAGGSLRLSCAASGIIFLVYARGWYRKAPGKVRELVAGISGSATSTNYADSVKGRFTISRDNAKNTVFLQMNSLKPEDTAVYYCAPEPDHVADSHSGYDYWGQGTQVTVSS”, the “polyreactivity (PSR sort gate)” value was “low polyreactivity”. In the case of “QVQLVESGGGLVQAGGSLRLSCAASGIIFLWYAMGWYRQAPWKERELVAAISRTGSSTYYADSVKGRFTISRDNAKNTVYLQMNSLKPEDTAVYYCAAAYYSKRSWRFDYWGQGTQVTVSS”, the “polyreactivity (PSR sort gate)” value is reported as “high polyreactivity”. In the case of “QVQLVESGGGLVQAGGSLRLSCAASGIIFLYYAMGWYRQAPGKEREFVAAISWSGGRTYYADSVKGRFTISRDNAKNTVYLQMNSLKPEDTAVYYCAATYALRKTGYDYWGQGTQVTVSS”, the “polyreactivity (PSR sort gate)” value is reported as “high polyreactivity”. With “QVQLVESGGGLVQAGGSLRLSCAASGIIFLYYAMGWYRQAPGKERELVAAISSGGSTYYADSVKGRFTISRDNAKNTVYLQMNSLKPEDTAVYYCAARPRKSRAYTALGDYWGQGTQVTVSS” the “polyreactivity (PSR sort gate)” value was “high polyreactivity”. With “QVQLVESGGGLVQAGGSLRLSCAASGIIFNDYAMGWYRQAPGNERELVATISWSGGSTYADSVKGLFTISRDNAKNTVYLQMNSLKPEDTAVYYCANQPTVYHHYGLGYWGQGTQVTVSS” the “polyreactivity (PSR sort gate)” value was “low polyreactivity”. In the case of “QVQLVESGGGLVQAGGSLRLSCAASGIIFNRYAMGRYRQAPGKERELVASITSSGGSTHYADSVKGRFTISRDNAKNTVYLQMNSLKPEDTAVYYCAKQFPNNYRYYLHYYYWGQGTQVTVSS”, the “polyreactivity (PSR sort gate)” value is reported as “low polyreactivity”. With “QVQLVESGGGLVQAGGSLRLSCAASGIIFNTYAMGWYRPAPGKERELVAGIDYSGGGTSYADSVKGRFTISRDNAKNTVYLQMNSLKPEDTAVYYCAADAYSGAYFTYLGEIYDYWGQGTQVTVSS” the “polyreactivity (PSR sort gate)” value was “low polyreactivity”. In the case of “QVQLVESGGGLVQAGGSLRLSCAASGIIFNYNAMGWYRQAPGKERELVASISSSGGNTYYADSVKGRFTISRDNAKNTVYLQMNSLKPEDTAVYYCAARYVGWRLKRWYEYWGQGTQVTVSS”, the “polyreactivity (PSR sort gate)” value is reported as “high polyreactivity”. For “QVQLVESGGGLVQAGGSLRLSCAASGIIFPGNAMGWYRQAPGKERELVAAISSGGNTKYADSVKGRFTISRDNAKNTGYLQMNSLKPEDTAVYYCAADGASRALYDYWGQGTQVTVSS”, the “polyreactivity (PSR sort gate)” value was “high polyreactivity”. In the case of “QVQLVESGGGLVQAGGSLRLSCAASGIIFPIYAMGWYRQAPGPERELVAAIDINGGRTYYADSVKGRFTISRDNAKNTVYLPMNSLKPEDTAVYYCNAEGGSYARLYGNYEYWGQGTQVTVSS”, the “polyreactivity (PSR sort gate)” value is reported as “low polyreactivity”. In the case of “QVQLVESGGGLVQAGGSLRLSCAASGIIFPRYAMGWYIQAPGKERELVAAITKRGGSTYYADSVKGRFTISRDNANNTVYLQMNSLKPEDTAVYYCARVWSRRYGGWYRNYDYWGQGTKVTVSS”, the “polyreactivity (PSR sort gate)” value is reported as “high polyreactivity”. With “QVQLVESGGGLVQAGGSLRLSCAASGIIFPRYAMGWYRQAPGKERELVAAITKRGGSTYYADSVKGRFTISRDNAKNTVYLQMNSLKPEDTAVYYCAADDNSGYYYWGQGTQVTVSS” the “polyreactivity (PSR sort gate)” value was “high polyreactivity”. For “QVQLVESGGGLVQAGGSLRLSCAASGIIFPRYTMGSYRQAPGKERELVAAISWRGGRTYYADSVKGRFTISRDNAKNTVYLQMNSLKPEDTAVYYCAAEFVHSYSYAYDYWGQGTQVTVSS”, the “polyreactivity (PSR sort gate)” value was “high polyreactivity”. In the case of “QVQLVESGGGLVQAGGSLRLSCAASGIIFPSYAMGWYRQAPGKERELVADISNDDSTNYADSVKGRFTISRDNAKNTVYLQMNSLKPEDTAVYYCNAEEWGFWWRYDYWGQGTQVTVSS”, the “polyreactivity (PSR sort gate)” value is reported as “high polyreactivity”. With “QVQLVESGGGLVQAGGSLRLSCAASGIIFPSYVMGWYRPAPGKERELVARISARGGRTYYADSVKGRFTISRDNAKNTVYLQMNSLKPEDTAVYYCAARWGITTWYDYWGQGTQVTVSS” the “polyreactivity (PSR sort gate)” value was “high polyreactivity”. For “QVQLVESGGGLVQAGGSLRLSCAASGIIFPTYAMGWYRQAPGKERELVAAISVSGGTTSYADSVKGRFTISRDNAKNTVYLQMNSLKPEDTAVYYCAARKYSYPVAAHYYWGQGTQVTVSS”, the “polyreactivity (PSR sort gate)” value was “high polyreactivity”. For “QVQLVESGGGLVQAGGSLRLSCAASGIIFPYYAMGWYRQATGKERELVAAITRGGITYYADSVKGRFTISRDNAKNTVYLQMNSLKPEDTAVYYCAARLRGSYDYWGQGTQVTVSS”, the “polyreactivity (PSR sort gate)” value was “high polyreactivity”. For “QVQLVESGGGLVQAGGSLRLSCAASGIIFPYYTMGWYRQAPGKERELVARITNGGRTYYADSVNGRFTISRDNAKNTVYLQMNSLKPEDTAVYYCNAGRYYIGGYWGQGTQVTVSS”, the “polyreactivity (PSR sort gate)” value was “high polyreactivity”. With “QVQLVESGGGLVQAGGSLRLSCAASGIIFQAYAMGWYRQAPGKERELVAAISYSGGSTYYADSVKGRFTISRDNAKNTVYLQMNCLKPEDTAVYYCAATFYGYFDSVFSWGYYYWGQGTQVTVSS” the “polyreactivity (PSR sort gate)” value was “low polyreactivity”. For “QVQLVESGGGLVQAGGSLRLSCAASGIIFQFYAMGWYRQAPGKEREFVAAISARSGRTYYADSVKGRFTISRDNAKNTVYLQMNSLKPEDTAVYYCNTAYAYSGRYDYWGQGTQVTVSS”, the “polyreactivity (PSR sort gate)” value was “high polyreactivity”. With “QVQLVESGGGLVQAGGSLRLSCAASGIIFQRNDMGWYRQAPGKERELVANIRDGGITYADSVKGRFTISRDNAKNTVYLQMNSLKPEDTAVYYCARDDTSPGYGDQSSNAAYYYWGQGTQVTVSS” the “polyreactivity (PSR sort gate)” value was “low polyreactivity”. In the case of “QVQLVESGGGLVQAGGSLRLSCAASGIIFQSYTMGWYRQAPGKVRELVAAIDSGGSTYYADSVKGRFTISRDNAKNTVYLQMNSLKPEDTAVYYCAAEPDTYWYTYDYWGQGTQVTVSS”, the “polyreactivity (PSR sort gate)” value is reported as “low polyreactivity”. In the case of “QVQLVESGGGLVQAGGSLRLSCAASGIIFRAYAMGWYRPAPGKETEFVADISYSGGRTYYADSVKGRFTISRDNAKNTVYLPLNSLKPEDTAVYYCGARKLYGSPEHGYWGQGTQVTVSS”, the “polyreactivity (PSR sort gate)” value is reported as “high polyreactivity”. In the case of “QVQLVESGGGLVQAGGSLRLSCAASGIIFRFYAMGWYRQAPGKERELVAAITSSGGSTYYADSVKGRFTISRDNAKNTVYLQMNSLKPEDTAVYYCATSTGPYRGRFYYWGQGTQVTVSS”, the “polyreactivity (PSR sort gate)” value is reported as “high polyreactivity”. With “QVQLVESGGGLVQAGGSLRLSCAASGIIFRGNAMGWYRQAPGKERELVAAISKSGGRTYYADSVKGRFTISRDNAKNTVYLQMNSLKPEDTAVYYCAASYYAVGGYDYWGQGTQVTVSS” the “polyreactivity (PSR sort gate)” value was “high polyreactivity”. For “QVQLVESGGGLVQAGGSLRLSCAASGIIFRGYAMGWDRQAPGQERELVAVIDRSGARTNYADSVTGRFTISRDNAKNTVYLQMNSLKPEDTAVYYCAASGVRAYSGLGYWGQGSQVTVSS”, the “polyreactivity (PSR sort gate)” value was “high polyreactivity”.
